Assay results: article PMC10215022 (mAbs, 2023)

Target: SARS-CoV-2 Delta (B.1.617.2) spike protein RBD, His-tagged (SARS-CoV-2 Delta (B.1.617.2), UniProt P0DTC2)
Assay: SPR

| Binder | Kd [nM] | koff [s⁻¹] | kon [M⁻¹ s⁻¹] |
| --- | --- | --- | --- |
| casirivimab (REGN10933) (antibody, V domains shown) VH: QVQLVESGGGLVKPGGSLRLSCAASGFTFSDYYMSWIRQAPGKGLEWVSYITYSGSTIYYADSVKGRFTISRDNAKSSLYLQMNSLRAEDTAVYYCARDRGTTMVPFDYWGQGTLVTVSS VL: DIQMTQSPSSLSASVGDRVTITCQASQDITNYLNWYQQKPGKAPKLLIYAASNLETGVPSRFSGSGSGTDFTFTISGLQPEDIATYYCQQYDNLPLTFGGGTKVEIK | 0.07 | 0.0002 | 2.9e+06 |
| imdevimab (REGN10987) (antibody, V domains shown) VH: QVQLVESGGGVVQPGRSLRLSCAASGFTFSNYAMYWVRQAPGKGLEWVAVISYDGSNKYYADSVKGRFTISRDNSKNTLYLQMNSLRTEDTAVYYCASGSDYGDYLLVYWGQGTLVTVSS VL: QSALTQPASVSGSPGQSITISCTGTSSDVGGYNYVSWYQQHPGKAPKLMIYDVSKRPSGVSNRFSGSKSGNTASLTISGLQSEDEADYYCNSLTSISTWVFGGGTKLTVL | 0.11 | 0.00028 | 2.6e+06 |
